The text below walks through data of US20220153832A1 (PIONYR IMMUNOTHERAPEUTICS, published 2022).

The target of assay [1] is T1, Cynomolgus MARCO, full length, on cells (cynomolgus, UniProt A0A2K5X0Z2 1-519).
T1 construct: whole, on cells; also called cyno MARCO; CyMARCO
T1 sequence: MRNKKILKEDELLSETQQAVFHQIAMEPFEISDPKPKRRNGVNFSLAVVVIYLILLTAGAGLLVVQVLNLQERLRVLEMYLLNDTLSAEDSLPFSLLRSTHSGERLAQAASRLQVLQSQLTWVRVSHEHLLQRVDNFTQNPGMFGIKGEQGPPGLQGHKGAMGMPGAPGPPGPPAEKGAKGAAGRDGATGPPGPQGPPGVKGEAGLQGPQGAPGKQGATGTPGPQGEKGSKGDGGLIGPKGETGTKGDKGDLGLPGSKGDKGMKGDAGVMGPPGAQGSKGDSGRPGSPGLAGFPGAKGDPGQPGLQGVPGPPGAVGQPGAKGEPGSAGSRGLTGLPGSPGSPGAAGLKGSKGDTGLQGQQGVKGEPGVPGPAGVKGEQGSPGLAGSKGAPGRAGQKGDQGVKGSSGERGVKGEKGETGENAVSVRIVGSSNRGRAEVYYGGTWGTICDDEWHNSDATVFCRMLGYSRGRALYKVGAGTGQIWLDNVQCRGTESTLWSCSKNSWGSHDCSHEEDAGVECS
Briefly: flow cytometry, cells overexpressing cyno MARCO; cyn (second of hu/cyn).

Assay [2] concerns the target T2, N-terminally polyhistidine tagged human MARCO ECD (147-520), recombinant (human, UniProt Q9UEW3 147-520).
T2 construct: also called PI-RG-3000; recombinant human MARCO; not shown: N-terminal polyhistidine tag
T2 sequence: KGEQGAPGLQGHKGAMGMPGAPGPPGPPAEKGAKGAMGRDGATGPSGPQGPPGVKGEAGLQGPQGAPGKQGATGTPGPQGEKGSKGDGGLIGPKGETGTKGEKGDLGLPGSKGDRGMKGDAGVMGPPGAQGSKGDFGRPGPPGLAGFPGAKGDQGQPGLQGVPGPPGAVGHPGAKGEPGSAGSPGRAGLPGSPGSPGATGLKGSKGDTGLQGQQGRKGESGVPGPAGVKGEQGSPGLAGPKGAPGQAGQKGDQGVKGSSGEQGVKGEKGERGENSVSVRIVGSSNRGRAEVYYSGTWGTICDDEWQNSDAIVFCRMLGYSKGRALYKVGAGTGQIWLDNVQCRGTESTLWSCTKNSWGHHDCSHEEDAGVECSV
Briefly: Biacore (SPR), binding affinity to human MARCO. Summed up:
(§1)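 Binding kinetics and affinity of antibodies for the N-terminally His-tagged human MARCO extracellular domain (147-520) were determined by surface plasmon resonance with multi-cycle kinetics on a Biacore T200. The antibodies were captured on a CM4 chip carrying amine-coupled anti-mouse Fc mAb (4500 RU target), and the runs were done at 25° C in 10 mM HEPES pH 7.4, 150 mM NaCl, 3 mM EDTA, 0.05% surfactant P20. The analyte was injected at 0.625–10 nM with 90 s association and 600 s dissociation, and the constants were fitted in BIAevaluation 3.1.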

The target of assay [3] is T3, Human Macrophage Receptor with Collagenous Structure (MARCO), full length, on cells (human, UniProt Q9UEW3 1-520).
T3 construct: the cell type is named under assay; also called huMARCO; HuMARCO
T3 sequence: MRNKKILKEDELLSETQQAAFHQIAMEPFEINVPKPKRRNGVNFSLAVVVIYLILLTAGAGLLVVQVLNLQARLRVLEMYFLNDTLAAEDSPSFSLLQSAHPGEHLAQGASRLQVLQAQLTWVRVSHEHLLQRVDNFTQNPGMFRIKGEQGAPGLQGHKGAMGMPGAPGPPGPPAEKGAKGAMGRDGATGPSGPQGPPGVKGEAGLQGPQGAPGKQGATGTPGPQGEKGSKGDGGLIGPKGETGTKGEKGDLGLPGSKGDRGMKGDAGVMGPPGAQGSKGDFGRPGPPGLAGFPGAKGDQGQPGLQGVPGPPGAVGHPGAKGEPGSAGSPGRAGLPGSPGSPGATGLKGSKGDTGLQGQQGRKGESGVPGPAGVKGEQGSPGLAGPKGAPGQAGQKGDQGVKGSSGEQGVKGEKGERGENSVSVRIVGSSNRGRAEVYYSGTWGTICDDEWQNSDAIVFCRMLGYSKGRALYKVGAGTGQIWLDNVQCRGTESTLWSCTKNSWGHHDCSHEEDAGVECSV
Briefly: flow cytometry, cells overexpressing human MARCO; hu (first of hu/cyn).

Assay [4] has as its target T2, N-terminally polyhistidine tagged human …. Briefly: Biacore (SPR), recombinant human MARCO. In outline: as §1
In assay [5] the target is T4, recombinant cynomolgus MARCO protein (cynomolgus, UniProt A0A2K5X0Z2 65-519).
T4 construct: Construct not described; also called cyno MARCO; cynoMARCO
T4 sequence: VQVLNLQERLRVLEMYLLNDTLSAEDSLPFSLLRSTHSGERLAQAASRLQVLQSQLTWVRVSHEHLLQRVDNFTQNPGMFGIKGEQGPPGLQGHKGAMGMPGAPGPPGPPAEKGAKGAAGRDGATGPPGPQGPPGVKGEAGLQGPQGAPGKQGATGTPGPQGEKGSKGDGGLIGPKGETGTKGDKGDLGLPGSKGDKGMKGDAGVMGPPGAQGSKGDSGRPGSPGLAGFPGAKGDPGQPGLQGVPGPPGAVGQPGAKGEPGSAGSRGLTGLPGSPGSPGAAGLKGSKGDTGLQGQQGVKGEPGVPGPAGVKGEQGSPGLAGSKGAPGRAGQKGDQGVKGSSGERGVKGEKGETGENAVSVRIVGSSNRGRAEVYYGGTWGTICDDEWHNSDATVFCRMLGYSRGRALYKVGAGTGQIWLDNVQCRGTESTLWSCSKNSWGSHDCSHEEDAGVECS
Briefly: Biacore (SPR), recombinant cyno MARCO.

The target in assay [6] is T5, hVar3 (RG3036) (human, UniProt Q9UEW3 147-520).
T5 construct: Human MARCO His-CLD-SRCR with Q452D, Y472S and K473S (already in the entry); also called recombinant human SRCR MARCO hVar3 protein
Briefly: ELISA on recombinant hVar3 protein, A450.

Assay [7] addresses T3, Human Macrophage Receptor with …. Briefly: flow cytometry, 293T HuMARCO cells. In outline:
(§2)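 Flow cytometry was used to assess antibody binding to HEK293T cells expressing human or cynomolgus MARCO. After Zombie NIR viability staining, 100,000 cells/well were incubated for 1 hr on ice with antibodies in an 8-point three-fold dilution starting at 100 nM in D-PBS/2% FBS/2 mM EDTA, then with APC goat anti-mouse IgG for 30 min on ice. Cells were acquired on an Attune NxT, and geometric mean fluorescence intensities were analysed in FlowJo and Prism.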

The target in assay [8] is T1, Cynomolgus MARCO, full length, on cells. The assay can be described thus: flow cytometry, 293T CyMARCO cells. Summed up: as §2
For assay [9], the target named is T5, hVar3 (RG3036). The assay can be described thus: ELISA on hVar3.

Positions count from the first letter of the chain named.

B1: PI-3046-AB (antibody, human IgG4 S228P, kappa)
heavy: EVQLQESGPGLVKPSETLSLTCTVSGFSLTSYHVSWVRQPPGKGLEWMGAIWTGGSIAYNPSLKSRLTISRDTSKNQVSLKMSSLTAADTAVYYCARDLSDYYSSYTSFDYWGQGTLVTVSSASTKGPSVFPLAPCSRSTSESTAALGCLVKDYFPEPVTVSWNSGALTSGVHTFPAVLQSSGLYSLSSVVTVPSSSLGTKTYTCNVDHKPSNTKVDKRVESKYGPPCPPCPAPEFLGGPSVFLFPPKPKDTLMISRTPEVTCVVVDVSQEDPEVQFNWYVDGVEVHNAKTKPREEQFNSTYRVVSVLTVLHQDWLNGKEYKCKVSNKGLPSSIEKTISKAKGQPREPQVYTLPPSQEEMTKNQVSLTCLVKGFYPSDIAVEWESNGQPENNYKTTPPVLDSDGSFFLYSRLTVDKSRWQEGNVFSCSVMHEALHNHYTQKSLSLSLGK
light: DIQMTQSPSSLSASVGDRVTITCRASEGISNDLAWYQQKPGKAPKLLIYAASRLQSGVPSRFSGSGSGTDYTLTISSMQPEDFATYYCQQSYKYPLTFGQGTKLEIKRTVAAPSVFIFPPSDEQLKSGTASVVCLLNNFYPREAKVQWKVDNALQSGNSQESVTEQDSKDSTYSLSSTLTLSKADYEKHKVYACEVTHQGLSSPVTKSFNRGEC
For B1, the half-maximal effective concentration (EC50) in assay [1] was 1.07 nM; in assay [3], 0.821 nM. The dissociation constant Kd came to 0.78 nM in [2], 0.78 nM in [4] and 1.1 nM in [5]. In addition, in assay [4], the koff amounted to 0.000371 s⁻¹.

B2: PI-3047-AB (antibody, human IgG4 S228P, kappa)
heavy: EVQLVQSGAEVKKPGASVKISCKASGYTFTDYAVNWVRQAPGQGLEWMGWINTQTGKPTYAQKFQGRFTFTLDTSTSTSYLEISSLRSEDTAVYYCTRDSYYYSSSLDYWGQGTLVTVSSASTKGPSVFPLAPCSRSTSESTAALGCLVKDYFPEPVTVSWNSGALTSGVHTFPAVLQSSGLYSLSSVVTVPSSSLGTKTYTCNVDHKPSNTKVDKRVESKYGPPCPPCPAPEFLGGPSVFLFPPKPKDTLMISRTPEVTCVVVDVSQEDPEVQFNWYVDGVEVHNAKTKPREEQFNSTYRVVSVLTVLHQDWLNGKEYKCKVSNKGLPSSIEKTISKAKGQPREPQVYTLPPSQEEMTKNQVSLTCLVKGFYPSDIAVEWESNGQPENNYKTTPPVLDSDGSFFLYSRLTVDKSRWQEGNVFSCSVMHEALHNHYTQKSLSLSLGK
light: B1 light with E27A, S56D, Y71F, L96W
notes: Humanized PI-HX-3011, hIgG4
As for B2, the values for the 50% effective concentration (EC50) in assay [1] and in assay [3] were 1.39 nM and 0.796 nM, respectively. The equilibrium dissociation constant (Kd) in assay [2] came to 0.72 nM; in assay [4] it was 0.72 nM; in assay [5] it was 0.79 nM. In assay [4], the off-rate constant (koff) was 0.000337 s⁻¹.

B3: PI-3048-AB (antibody, human IgG4 S228P, kappa)
heavy: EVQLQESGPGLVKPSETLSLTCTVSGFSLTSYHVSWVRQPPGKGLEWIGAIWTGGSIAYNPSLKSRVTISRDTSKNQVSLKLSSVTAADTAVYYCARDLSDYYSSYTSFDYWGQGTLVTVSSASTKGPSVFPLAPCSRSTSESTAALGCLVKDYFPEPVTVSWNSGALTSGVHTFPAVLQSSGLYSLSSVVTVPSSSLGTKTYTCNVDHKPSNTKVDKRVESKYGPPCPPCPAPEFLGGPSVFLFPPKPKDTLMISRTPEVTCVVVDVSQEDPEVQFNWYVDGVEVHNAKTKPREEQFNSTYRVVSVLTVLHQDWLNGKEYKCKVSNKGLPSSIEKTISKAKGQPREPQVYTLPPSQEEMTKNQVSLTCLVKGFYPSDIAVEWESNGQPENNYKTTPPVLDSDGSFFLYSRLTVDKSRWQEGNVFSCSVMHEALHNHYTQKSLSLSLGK
light: B1 light with S56D, M78L
As for B3, the EC50 was found to be 2.39 nM in assay [1] and 0.721 nM in [3]. In addition, the figures for the dissociation constant Kd in assay [2], in assay [4] and in assay [5] were 1.05 nM, 1.05 nM and 1.81 nM, respectively. The koff in assay [4] came to 0.000386 s⁻¹.

B4: PI-3019-AB (antibody, mouse IgG2a, kappa)
heavy: EVQLVESGGGLVQPGSSLKLSCVASKFTFSNYGMNWIRQAPKKGLEWIALIYYNSNNKYYADSVKGRFTISRDNSKNTLYLEMNSLRSEDTAMYYCAKSLTGGSDYFDSWGQGVMVTVSSAKTTAPSVYPLAPVCGDTTGSSVTLGCLVKGYFPEPVTLTWNSGSLSSGVHTFPAVLQSDLYTLSSSVTVTSSTWPSQSITCNVAHPASSTKVDKKIEPRGPTIKPCPPCKCPAPNLLGGPSVFIFPPKIKDVLMISLSPIVTCVVVDVSEDDPDVQISWFVNNVEVHTAQTQTHREDYNSTLRVVSALPIQHQDWMSGKEFKCKVNNKDLPAPIERTISKPKGSVRAPQVYVLPPPEEEMTKKQVTLTCMVTDFMPEDIYVEWTNNGKTELNYKNTEPVLDSDGSYFMYSKLRVEKKNWVERNSYSCSVVHEGLHNHHTTKSFSRTPGK
light: DVQMTQSPSYLAASPGESVSISCKASKSIGTFLAWYQEKPEKTNKLLIYSGSTLQSGTPSRFSGSGSGTDFTLTIRNLEPEDFAVYYCQQHDEYPFTFGSGTKLEIKRADAAPTVSIFPPSSEQLTSGGASVVCFLNNFYPKDINVKWKIDGSERQNGVLNSWTDQDSKDSTYSMSSTLTLTKDEYERHNSYTCEATHKTSTSPIVKSFNRNEC
Consider B4, for which the binding result in assay [6] is recorded as “binds”.

B5: PI-HX-3001 (antibody, rat IgG2a, V domains shown)
VH: EVQLVESGGGLVKPGASLKLSCVASGFTFSDYWMNWVRQTPGKTMEWIGDIKDDGSYTNYTPSLKNRFTISRDNAKSTLYLQMNNVRSEDTGTYYCTSGGVFDYWGQGVMVTVSS
VL: EIVLTQSPTTMAASPGEMVTITCRASSSVNYMHWFQQKSGTSPKPWIYDTSKLASGVPDRFSGSGSGTSYSLTISSMEAEDAASYYCLQRSTFPPTFGAGTKLELK
notes: Rat IgG2a hybridoma antibody; also called PI-3006 (name of the recombinant form)
Turning to B5, the binding result in assay [7] and in [8] was “no binding” throughout.

B6: PI-3020-AB (antibody, human IgG4, kappa)
heavy: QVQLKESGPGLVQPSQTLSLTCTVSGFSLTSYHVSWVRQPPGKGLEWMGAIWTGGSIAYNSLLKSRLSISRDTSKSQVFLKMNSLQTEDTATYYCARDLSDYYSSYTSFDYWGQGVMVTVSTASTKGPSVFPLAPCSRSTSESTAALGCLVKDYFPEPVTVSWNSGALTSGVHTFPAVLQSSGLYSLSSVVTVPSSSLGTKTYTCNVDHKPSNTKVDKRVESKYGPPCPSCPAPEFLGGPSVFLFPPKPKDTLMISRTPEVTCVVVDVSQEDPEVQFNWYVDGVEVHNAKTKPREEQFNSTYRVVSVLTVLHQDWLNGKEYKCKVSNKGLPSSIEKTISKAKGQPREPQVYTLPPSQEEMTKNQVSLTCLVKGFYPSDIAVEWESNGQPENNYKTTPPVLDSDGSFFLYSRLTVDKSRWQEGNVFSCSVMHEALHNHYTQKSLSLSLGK
light: DIQMTQSPASLSTSLGETVSIECLASEGISNDLAWYQQKSGKSPQLLIYAASRLQDGVPSRFSGSGSGTRYSLKISGMQPEDEADYFCQQSYKYPLTFGSGTKLEIKRTVAAPSVFIFPPSDEQLKSGTASVVCLLNNFYPREAKVQWKVDNALQSGNSQESVTEQDSKDSTYSLSSTLTLSKADYEKHKVYACEVTHQGLSSPVTKSFNRGEC
With B6, the binding result in [9] was “no binding”.

B7: PI-HX-3017 (antibody, rat IgG1, V domains shown)
VH: EVQLVESGGGLVQPGRSLKFSCSASGFTFSAYSMAWVRQAPKTGLEWVATIIYDGSSTYYRDSVKGRFTISRDNAKNTLYLQMDSLRSEDTATYYCARLGYSGHYFDYWGQGVMVTVSS
VL: DTVLTQSPALAVSLGQRVTISCQASESVSSSLHSYLHWYQQKPGQQPKLLIYRASNLESGVPARFSGSGSGTDFTLNIDPVEADDIATYFCQQSWNDPRTFGGGTKLELK
notes: Rat IgG1 hybridoma antibody; also called PI-3009 (name of the recombinant form)
Turning to B7, the binding result in assay [7] and in [8] was “no binding” each time.
